In patent US20050048073A1, “Methods of determining west nile virus epitopes and method of using the same” (priority 2001, published 2005):
Several values for one entry are separate records, joined by “and”; a condition that tells them apart may be missing. Equal entries are not always repeated.

Key:
[1] = molecular target: HLA B*07 (human); test: T2B7 HLA stabilisation assay, flow cytometry, peptide at 200 ug/ml
[2] = molecular target: HLA B*07 (human); test: T2B7 HLA stabilisation assay, flow cytometry, 10/20/200 ug/ml, four assays; details: for Binding results (total of four assays): scale: of 3 concentrations positive

Binder | Avg. Fold Inc. @ 200 (fold over background) [1] | Avg. MFI 200 [1] | Binding number (binding score) [2] | Binding results (total of four assays) ([2]; in 2 assays) | Binding results (total of four assays) (of 3 concentrations positive, in 1 assay) [2] | Binding results (total of four assays) ([2]; in 3 assays) | Binding results (total of four assays) ([2]; in 4 assays)
VPCRGQDELV [WNVB7 0010] | 1 | 659 MFI | 4 | 2 | – | – | –
PEDIDCWCTK [WNVB7 3399] | 1.1 | 990 MFI | 1 | – | 1 | – | –
IPAGFEPEML [WNVB7 0008] | 1.9 | 1210 MFI | 10 | – | 1 | 3 | –
GPGHEEPQLV [WNVB7 0011] | 1 | 849 MFI | 2 | – | 2 | – | –
TPAAPSYTLK [WNVB7 0009] | 1.5 | 954 MFI | 8 | 2 | 3 and 1 | – | –
RPQRHDEKTL [WNVB7 0019] | 2.8 | 1640 MFI | 11 | – | 2 | 3 | –
EPPEGVKYVL [WNVB7 0013] | 1.1 | 682 MFI | 6 | – | 3 and 2 and 1 | – | –
RPRWIDARVY [WNVB7 0017] | 1.9 | 1710 MFI | 11 | – | 2 | 3 | –
RPAADGRTVM [WNVB7 0023] | 1.5 | 979 MFI | 12 | – | – | – | 3
VPGTKIAGML [WNVB7 0018] | 1.7 | 1090 MFI | 6 | 1 | 3 and 2 | – | –
KPTGSASSLV [WNVB7 0015] | 1.7 | 1070 MFI | 6 | 2 and 1 | – | – | –
PETPQGLAKI [WNVB7 3403] | 1 | 589 MFI | 0 | – | – | – | 0
TPGLRCLNLD [WNVB7 0024] | 1 | 850 MFI | 2 | 1 | – | – | –
SPHRVPNYNL [WNVB7 0020] | 2.5 | 1610 MFI | 12 | – | – | – | 3
